Where “and” joins values, the source holds several entries; their conditions need not be identical. Equal entries are not always repeated.
What was measured:
[1] = biological target: porcine aminopeptidase N ectodomain, wild type (pig) (UniProt P15145); assay: SPR; BIAcore X-100, room temperature; hAPN/pAPN WT or mutant immobilised on CM5 chips via amine coupling; serially diluted PDCoV RBD WT or mutant flowed over in HEPES buffer (0.01 M HEPES, 0.15 M NaCl, 0.5% surfactant P20, 3 mM EDTA, pH 7.4); steady-state affinity model; each of two experiments listed
porcine aminopeptidase N ectodomain, wild type (pig), sequence (P15145 58-961): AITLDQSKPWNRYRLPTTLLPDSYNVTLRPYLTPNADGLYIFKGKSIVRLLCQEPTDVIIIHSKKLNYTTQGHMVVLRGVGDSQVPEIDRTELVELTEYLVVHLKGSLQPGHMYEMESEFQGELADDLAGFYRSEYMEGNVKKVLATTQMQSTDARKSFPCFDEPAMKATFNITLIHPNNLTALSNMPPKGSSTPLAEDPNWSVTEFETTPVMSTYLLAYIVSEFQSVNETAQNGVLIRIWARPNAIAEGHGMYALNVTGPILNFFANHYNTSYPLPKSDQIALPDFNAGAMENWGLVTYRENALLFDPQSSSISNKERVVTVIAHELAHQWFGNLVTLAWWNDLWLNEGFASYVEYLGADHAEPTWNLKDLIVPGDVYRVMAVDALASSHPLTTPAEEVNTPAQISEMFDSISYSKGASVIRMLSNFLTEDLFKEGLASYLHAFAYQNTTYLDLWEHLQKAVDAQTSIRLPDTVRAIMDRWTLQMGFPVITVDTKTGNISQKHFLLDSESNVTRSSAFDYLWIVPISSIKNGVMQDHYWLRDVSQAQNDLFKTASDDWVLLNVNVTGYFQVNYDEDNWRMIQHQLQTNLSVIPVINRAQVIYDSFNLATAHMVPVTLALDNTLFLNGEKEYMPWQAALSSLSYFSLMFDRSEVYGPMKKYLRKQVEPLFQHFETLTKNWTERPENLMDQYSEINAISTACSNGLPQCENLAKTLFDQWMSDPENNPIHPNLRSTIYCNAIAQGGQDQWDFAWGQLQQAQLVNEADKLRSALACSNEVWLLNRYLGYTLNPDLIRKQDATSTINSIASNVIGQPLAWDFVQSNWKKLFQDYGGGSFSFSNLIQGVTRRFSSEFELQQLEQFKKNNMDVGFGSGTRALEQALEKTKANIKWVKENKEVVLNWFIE

[2] = biological target: human aminopeptidase N ectodomain, wild type (human) (UniProt P15144); assay: as above
human aminopeptidase N ectodomain, wild type (human), sequence (P15144 62-963): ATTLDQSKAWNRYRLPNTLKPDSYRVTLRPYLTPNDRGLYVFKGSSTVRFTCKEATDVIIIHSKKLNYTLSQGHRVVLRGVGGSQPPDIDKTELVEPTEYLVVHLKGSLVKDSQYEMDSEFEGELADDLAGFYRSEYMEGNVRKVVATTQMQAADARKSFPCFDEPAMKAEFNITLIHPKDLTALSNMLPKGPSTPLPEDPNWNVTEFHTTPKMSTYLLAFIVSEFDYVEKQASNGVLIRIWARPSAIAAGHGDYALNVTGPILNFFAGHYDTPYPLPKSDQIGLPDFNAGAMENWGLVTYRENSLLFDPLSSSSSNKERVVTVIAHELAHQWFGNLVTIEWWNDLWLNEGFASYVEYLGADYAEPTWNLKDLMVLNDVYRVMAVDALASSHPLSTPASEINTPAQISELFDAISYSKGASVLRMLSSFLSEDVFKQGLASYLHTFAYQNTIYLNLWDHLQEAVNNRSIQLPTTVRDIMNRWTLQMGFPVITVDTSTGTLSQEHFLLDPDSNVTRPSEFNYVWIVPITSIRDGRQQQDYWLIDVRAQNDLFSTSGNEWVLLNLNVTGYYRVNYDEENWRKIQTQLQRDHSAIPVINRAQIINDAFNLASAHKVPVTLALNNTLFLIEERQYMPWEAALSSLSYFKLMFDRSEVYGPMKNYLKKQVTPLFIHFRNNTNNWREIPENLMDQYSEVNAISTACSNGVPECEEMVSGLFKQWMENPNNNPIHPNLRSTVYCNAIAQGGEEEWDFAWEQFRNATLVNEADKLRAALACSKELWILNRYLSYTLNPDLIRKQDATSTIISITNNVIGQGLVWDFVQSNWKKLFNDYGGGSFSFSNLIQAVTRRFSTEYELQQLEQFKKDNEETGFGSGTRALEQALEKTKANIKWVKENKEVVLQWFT

[3] = biological target: hAPN ectodomain Y316A mutant (human) (UniProt P15144); assay: SPR; BIAcore X-100, room temperature; hAPN/pAPN WT or mutant immobilised on CM5 chips by amine coupling; serially diluted PDCoV RBD WT or mutant flowed over in HEPES buffer (0.01 M HEPES, 0.15 M NaCl, 0.5% surfactant P20, 3 mM EDTA, pH 7.4); steady-state affinity model
hAPN ectodomain Y316A mutant (human), sequence (P15144 62-963 Y316A): as the sequence (P15144 62-963) above, with Y255A counted along it

[4] = biological target: hAPN ectodomain K379A mutant (human) (UniProt P15144); assay: as above
hAPN ectodomain K379A mutant (human), sequence (P15144 62-963 K379A): as the sequence (P15144 62-963) above, with K318A counted along it

[5] = biological target: human aminopeptidase N (hAPN) ectodomain, residues 62-963, wild type (UniProt P15144); assay: as above
human aminopeptidase N (hAPN) ectodomain, residues 62-963, wild type, sequence (P15144 62-963): as the sequence (P15144 62-963) above

[6] = biological target: porcine aminopeptidase N (pAPN) ectodomain, residues 58-961, wild type (pig) (UniProt P15145); assay: as above
porcine aminopeptidase N (pAPN) ectodomain, residues 58-961, wild type (pig), sequence (P15145 58-961): as the sequence (P15145 58-961) above

[7] = biological target: hAPN ectodomain E742A mutant (human) (UniProt P15144); assay: as above
hAPN ectodomain E742A mutant (human), sequence (P15144 62-963 E742A): as the sequence (P15144 62-963) above, with E681A counted along it

[8] = biological target: porcine aminopeptidase N (pAPN) ectodomain, residues 58-961, wild type (UniProt P15145); assay: SPR; conditions: parent: 44.24 ± 2.21 µM
porcine aminopeptidase N (pAPN) ectodomain, residues 58-961, wild type, sequence (P15145 58-961): as the sequence (P15145 58-961) above

[9] = biological target: human aminopeptidase N (hAPN) ectodomain, residues 62-963, wild type (UniProt P15144); assay: SPR; conditions: parent: 3.71 ± 0.05 µM
[10] = biological target: porcine aminopeptidase N ectodomain, wild type (pig) (UniProt P15145); assay: SPR; hAPN/pAPN WT or mutant immobilised on CM5 chips by amine coupling; serially diluted PDCoV RBD WT or mutant flowed over; BIAcore X-100, room temperature; 0.01 M HEPES, 0.15 M NaCl, 0.5% surfactant P20, 3 mM EDTA, pH 7.4; steady-state affinity model
[11] = biological target: human aminopeptidase N ectodomain, wild type (human) (UniProt P15144); assay: as above
[12] = biological target: porcine aminopeptidase N ectodomain, wild type (pig) (UniProt P15145); assay: as above; remark: listed apart in the source
[13] = biological target: human aminopeptidase N ectodomain, wild type (human) (UniProt P15144); assay: as above; remark: listed apart in the source
[14] = biological target: porcine aminopeptidase N ectodomain E421A (pig) (UniProt P15145); assay: as above
porcine aminopeptidase N ectodomain E421A (pig), sequence (P15145 58-961 E421A): as the sequence (P15145 58-961) above, with E364A counted along it

[15] = biological target: human aminopeptidase N ectodomain E745A (human) (UniProt P15144); assay: as above
human aminopeptidase N ectodomain E745A (human), sequence (P15144 62-963 E745A): as the sequence (P15144 62-963) above, with E684A counted along it

[16] = biological target: human aminopeptidase N ectodomain E426A (human) (UniProt P15144); assay: as above
human aminopeptidase N ectodomain E426A (human), sequence (P15144 62-963 E426A): as the sequence (P15144 62-963) above, with E365A counted along it

[17] = biological target: human aminopeptidase N ectodomain Y316A (human) (UniProt P15144); assay: as above
human aminopeptidase N ectodomain Y316A (human), sequence (P15144 62-963 Y316A): as the sequence (P15144 62-963) above, with Y255A counted along it

[18] = biological target: human aminopeptidase N ectodomain W429A (human) (UniProt P15144); assay: as above
human aminopeptidase N ectodomain W429A (human), sequence (P15144 62-963 W429A): as the sequence (P15144 62-963) above, with W368A counted along it

[19] = biological target: human aminopeptidase N ectodomain K379A (human) (UniProt P15144); assay: as above
human aminopeptidase N ectodomain K379A (human), sequence (P15144 62-963 K379A): as the sequence (P15144 62-963) above, with K318A counted along it

[20] = biological target: human aminopeptidase N ectodomain H789A (human) (UniProt P15144); assay: as above
human aminopeptidase N ectodomain H789A (human), sequence (P15144 62-963 H789A): as the sequence (P15144 62-963) above, with H728A counted along it

[21] = biological target: human aminopeptidase N ectodomain E742A (human) (UniProt P15144); assay: as above
human aminopeptidase N ectodomain E742A (human), sequence (P15144 62-963 E742A): as the sequence (P15144 62-963) above, with E681A counted along it

[22] = biological target: porcine aminopeptidase N ectodomain W424A (pig) (UniProt P15145); assay: as above
porcine aminopeptidase N ectodomain W424A (pig), sequence (P15145 58-961 W424A): as the sequence (P15145 58-961) above, with W367A counted along it

PDCoV RBD E320A (domain or fragment) was tested, and the Kd [1] was 279 µM and 220 µM and the Kd [2] was 135 µM and 188 µM.

PDCoV RBD F318A (domain or fragment) was tested, and the Kd [1] was 817 µM and 511 µM and the Kd [2] was 112 µM and 154 µM.

PDCoV RBD N397A (domain or fragment) was tested, and the Kd [1] was 34 µM and 53.8 µM and the Kd [2] was 3.35 µM and 3.62 µM.

In the case of PDCoV RBD R322A (domain or fragment), the Kd [1] is reported as 454 µM and 553 µM and the Kd [2] is reported as 256 µM and 335 µM.

PDCoV RBD R357A (domain or fragment) was tested, and the Kd [1] was 27.7 µM and 60.5 µM and the Kd [2] was 199 µM and 232 µM.

Substance PDCoV RBD W396A (domain or fragment) has a Kd [2] of 88000 µM.

PDCoV RBD Y398A (domain or fragment) was tested, and the Kd [2] was 309 µM and 730 µM.

“PDCoV spike (S) protein receptor binding domain (RBD), residues 300-419, wild type (domain or fragment)” was tested, and the fold decrease in affinity against wild-type hAPN [3] was 10 fold, the Kd [4] was 100 µM and the Kd [5] was 1 µM. The fold lower affinity than to hAPN [6] was 10 fold and the fold decrease in affinity against wild-type hAPN [7] was 4 fold.

In the case of “PDCoV spike (S) protein receptor binding domain (RBD), residues 300-419, wild type E320A”, the Kd [8] is reported as 249 µM and the Kd [9] is reported as 161 µM.

“PDCoV spike (S) protein receptor binding domain (RBD), residues 300-419, wild type F318A” gave a Kd [8] of 664 µM and a Kd [9] of 133 µM.

“PDCoV spike (S) protein receptor binding domain (RBD), residues 300-419, wild type N397A” showed a Kd [9] of 3.49 µM.

Work on “PDCoV spike (S) protein receptor binding domain (RBD), residues 300-419, wild type R322A” yielded a Kd [8] of 504 µM and a Kd [9] of 295 µM.

Substance “PDCoV spike (S) protein receptor binding domain (RBD), residues 300-419, wild type R357A” has a Kd [9] of 216 µM.

“PDCoV spike (S) protein receptor binding domain (RBD), residues 300-419, wild type Y398A” was tested, and the Kd [9] was 520 µM.

“PDCoV spike protein receptor binding domain E320A (domain or fragment)” was tested, and the Kd [10] was 279 µM and 220 µM and the Kd [11] was 135 µM and 188 µM.

For “PDCoV spike protein receptor binding domain F318A (domain or fragment)”, the Kd [10] was 817 µM and 511 µM and the Kd [11] was 112 µM and 154 µM.

In the case of “PDCoV spike protein receptor binding domain N397A (domain or fragment)”, the Kd [10] is reported as 34 µM and 53.8 µM and the Kd [11] is reported as 3.35 µM and 3.62 µM.

“PDCoV spike protein receptor binding domain R322A (domain or fragment)” was tested, and the Kd [10] was 454 µM and 553 µM and the Kd [11] was 256 µM and 335 µM.

“PDCoV spike protein receptor binding domain R357A (domain or fragment)” was tested, and the Kd [10] was 27.7 µM and 60.5 µM and the Kd [11] was 199 µM and 232 µM.

With “PDCoV spike protein receptor binding domain W396A (domain or fragment)” the Kd [12] was > 1000 µM, the Kd [13] was > 1000 µM and the Kd [11] was 88000 µM.

With “PDCoV spike protein receptor binding domain Y398A (domain or fragment)” the Kd [12] was > 1000 µM and the Kd [11] was 309 µM and 730 µM.

For “PDCoV spike protein receptor binding domain, wild type (domain or fragment)”, the Kd [14] was 103 µM and 146 µM, the Kd [15] was 3.13 µM and 3 µM and the Kd [16] was 305 µM and 362 µM. For the same substance, the Kd [17] was 35.7 µM and 38.5 µM, the Kd [18] was 158 µM and 97 µM and the Kd [19] was 371 µM and 516 µM. The Kd [20] was 6.47 µM and 6.03 µM, the Kd [21] was 14.3 µM and 13.2 µM and the Kd [22] was 113 µM and 119 µM. The Kd [10] was 42 µM and 46.5 µM and the Kd [11] was 3.76 µM and 3.66 µM.

Source: paper PMC8933513 (2022)
